We go through two substances from publication PMC7469880.

For this experiment, the target named is FIRΔexon2-FLAG (splice variant of FIR lacking exon 2, FLAG-tagged) (human). Description: co-IP.

Substance “SAP130 (subunit of splicing factor 3b), endogenous in HeLa (from UniProt Q15393 1-1217) (natural protein)” showed an amount detected relative to the FIR–FLAG complex (1.0) of 0.35. The value for “SAP155 (subunit of splicing factor 3b), endogenous in HeLa (from UniProt O75533 1-1304) (natural protein)” was 0.1.
